# Measurements taken from US20160271157A1, “BETA-CATENIN” (UCL BUSINESS PLC, priority 2013, published 2016).
# B1: Wnt5A: Recombinant Wnt peptide purchased from R&D systems (protein, UniProt P41221 62-380, looked up)
# Protein Wnt-5a: IIGAQPLCSQLAGLSQGQKKLCHLYQDHMQYIGEGAKTGIKECQYQFRHRRWNCSTVDNTSVFGRVMQIGSRETAFTYAVSAAGVVNAMSRACREGELSTCGCSRAARPKDLPRDWLWGGCGDNIDYGYRFAKEFVDARERERIHAKGSYESARILMNLHNNEAGRRTVYNLADVACKCHGVSGSCSLKTCWLQLADFRKVGDALKEKYDSAAAMRLNSRGKLVQVNSRFNSPTTQDLVYIDPSPDYCVRNESTGSLGTQGRLCNKTSEGMDGCELMCCGRGYDQFKTVQTERCHCKFHWCCYVKCKKCTEIVDQFVCK
# Test system: Cos7 simian kidney cell line
# Test: Live [Ca2+]i imaging after addition of Wnt ligand, Cos7
# Assay type: cell-based
# Details: Cos7 cells
# Method: The imaging protocol was developed in the inventor's laboratory and has been described in detail, elsewhere (Wang at al., (2010) PLoS ONE 5, e10456). Briefly, 100000-200000 PC3, MCF7, 253J or Cos 7 cells were plated on 35 mm FluoroDish (WPI) and grown for 48 h; calcium indicators Fluo-4 (Invitrogen) and FuraRed (Invitrogen) at 1 ng/ml were added to FluoroDish containing only 1 ml of culture medium and incubated for 15-20 min at 37° C. The culture medium was removed and washed (×2) and replaced with 1 ml PBS. Live cell calcium Imaging was performed on an Olympus FluoView FV 1000 confocal microscope (Olympus […]) equipped with a 20× dry objective (numerical aperture=0.75). Calcium indicators were excited with an argon laser line (488 nm) and emissions recorded in the green channel (500-560 nm) for Fluo-4 and red channel (600-700 nm) for FuraRed after addition of vehicle control (PBS) or Wnt X (30-600 ng/ml). […] Fluorescent intensity was measured and data exported as a tab delimited file for further analysis using a spreadsheet. All imaging experiments were performed in duplicate; intracellular calcium at 100 ng/ml was measured in at least 3-12 different passages (passage numbers 25 to 37) of cell line for each Wnt ligand. […] The measurements were exported as a tab delimited file into a spreadsheet for further analysis and Fluo4/Fura Red ratios were calculated. […]
molecule,measurement,value
B1,[Ca2+]i activation in response to Wnt ligand,activated [Ca^2+]i
